Patent US20230265151A1, “GIP/GLP1 CO-AGONIST COMPOUNDS” (priority 2020, published 2023)
*1 amine or outer side, *2 acyl side, *3 side chain or, on linkers, in order; H or OH if unused. Where no end group is shown, it is not given here. Side-chain parts run from the residue outwards. [ ]: non-standard residue; d: D form. The star is where a group is joined. Decanoyl(10-(4-HOOC-PhO)) = O=C(O)c1ccc(OCCCCCCCCCC(=O)*)cc1; αMePhe(2-F) = C[C@](N)(Cc1ccccc1F)C(=O)O; γGlu = O=C(O)[C@H](CCC(=O)[*:2])N[*:1]; C14 diacid = O=C(O)CCCCCCCCCCCCC(=O)*; αMeY = C[C@](N)(Cc1ccc(O)cc1)C(=O)O; αMeL = CC(C)C[C@](C)(N)C(=O)O; Orn = NCCC[C@H](N)C(=O)O; AEEA = NCCOCCOCC(=O)O; Aib = CC(C)(N)C(=O)O

T1: human GIP receptor (human) (UniProt P48546)
T1 sequence (looked up): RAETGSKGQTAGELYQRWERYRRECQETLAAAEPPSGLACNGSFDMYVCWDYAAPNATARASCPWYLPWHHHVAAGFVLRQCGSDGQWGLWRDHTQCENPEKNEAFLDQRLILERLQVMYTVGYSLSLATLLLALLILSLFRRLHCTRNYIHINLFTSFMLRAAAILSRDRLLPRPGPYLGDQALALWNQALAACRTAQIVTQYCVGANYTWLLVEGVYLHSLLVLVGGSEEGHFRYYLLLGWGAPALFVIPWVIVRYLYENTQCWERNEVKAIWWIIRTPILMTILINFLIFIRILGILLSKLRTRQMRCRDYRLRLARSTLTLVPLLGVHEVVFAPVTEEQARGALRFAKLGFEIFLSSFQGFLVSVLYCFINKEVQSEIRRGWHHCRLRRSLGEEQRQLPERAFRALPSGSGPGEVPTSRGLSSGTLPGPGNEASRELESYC

T2: human GIP receptor (human, UniProt P48546 22-466)
T2 sequence (looked up): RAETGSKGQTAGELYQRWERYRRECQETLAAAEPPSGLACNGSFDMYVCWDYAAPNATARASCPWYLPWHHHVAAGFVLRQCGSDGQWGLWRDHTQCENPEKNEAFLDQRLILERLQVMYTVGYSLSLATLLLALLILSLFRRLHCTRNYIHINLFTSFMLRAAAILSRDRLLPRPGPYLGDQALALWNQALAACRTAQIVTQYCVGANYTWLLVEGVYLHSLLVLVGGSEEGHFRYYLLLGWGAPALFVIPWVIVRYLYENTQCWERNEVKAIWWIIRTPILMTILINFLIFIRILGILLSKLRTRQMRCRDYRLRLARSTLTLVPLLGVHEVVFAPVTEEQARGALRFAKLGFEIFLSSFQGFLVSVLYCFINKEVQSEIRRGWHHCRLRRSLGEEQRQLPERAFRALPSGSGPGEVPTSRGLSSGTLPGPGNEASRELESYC


Experiments:
Experiment in all cases: cell-based or functional assay
hGLP-1R = hGLP-1R (Homo sapiens, UniProt P43220)
[1] = biological target: T1, human GIP receptor (human)
[2] = biological target: human glucagon receptor (human) (UniProt P47871)
human GIP receptor = biological target: T2, human GIP receptor
human GLP-1 receptor = human GLP-1 receptor (human, UniProt P43220 24-463)
human glucagon receptor = human glucagon receptor (human, UniProt P47871 26-477)

Binder | cAMP EC50 (hGLP-1R) | cAMP Emax (hGLP-1R) | cAMP EC50 [1] | cAMP Emax [1] | cAMP EC50 [2] | cAMP EC50 (1.0% HSA) (human GIP receptor) | cAMP Emax (1.0% HSA) (human GIP receptor) | cAMP EC50 (1.0% HSA) (human GLP-1 receptor) | cAMP EC50 (1.0% HSA) (human glucagon receptor) | cAMP Emax (1.0% HSA) (human GLP-1 receptor)
YXEGTXTSDYXIXLDXKAQXKFIXXLIEGGPSSGAPPPS (Y-Aib-EGT-αMeF(2F)-TSDY-Aib-I-αMeL-LD-Orn-K((2-[2-(2-Amino-ethoxy)-ethoxy]-acetyl)2-(γ-Glu)-CO-(CH2)10-CH3)AQ-Aib-K((2-[2-(2-Amino-ethoxy)-ethoxy]-acetyl)2-(γ-Glu)-CO-(CH2)10-CH3)FI-(D-Glu)-αMeY-LIEGGPSSGAPPPS-NH2) [Example 300] | 0.194 nM | 107% | 0.0128 nM | 102% | > 9950 nM | 1.25 nM | 91.5% | 19.6 nM | > 9950 nM | –
YXEGTXTSDYXIXLDXKAQXEFIXXLIKGGPSSGAPPPS (Y-Aib-EGT-αMeF(2F)-TSDY-Aib-I-αMeL-LD-Orn-K((2-[2-(2-Amino-ethoxy)-ethoxy]-acetyl)2-(γ-Glu)-CO-(CH2)10-CH3)AQ-Aib-EFI-(D-Glu)-αMeY-LIK((2-[2-(2-Amino-ethoxy)-ethoxy]-acetyl)2-(γ-Glu)-CO-(CH2)10-CH3)GGPSSGAPPPS-NH2) [Example 301] | 0.175 nM | 99.2% | 0.0128 nM | 97.4% | > 9950 nM | 0.919 nM | 85.5% | 12.9 nM | > 9950 nM | –
YXEGTXTSDXXIXLDXKAQXKFIXXLIEGGPSSGAPPPS (Y-Aib-EGT-αMeF(2F)-TSD-4Pal-Aib-I-αMeL-LD-Orn-K((2-[2-(2-Amino-ethoxy)-ethoxy]-acetyl)2-(γ-Glu)-CO-(CH2)10-CH3)AQ-Aib-K((2-[2-(2-Amino-ethoxy)-ethoxy]-acetyl)2-(γ-Glu)-CO-(CH2)10-CH3)FI-(D-Glu)-αMeY-LIEGGPSSGAPPPS-NH2) [Example 322] | 0.144 nM | 100% | 0.00937 nM | 101% | > 9950 nM | 0.617 nM | – | 8.09 nM | > 9950 nM | 94.5%
YXEGTXTSDVXIXLDXKAQXKFIXXLIEGGPSSGAPPPS (Y-Aib-EGT-αMeF(2F)-TSDV-Aib-I-αMeL-LD-Orn-K((2-[2-(2-Amino-ethoxy)-ethoxy]-acetyl)2-(γ-Glu)-CO-(CH2)12-CO2H)AQ-Aib-K((2-[2-(2-Amino-ethoxy)-ethoxy]-acetyl)2-(γ-Glu)-CO-(CH2)12-CO2H)FI-(D-Glu)-αMeY-LIEGGPSSGAPPPS-NH2) [Example 318] | 0.219 nM | 99.9% | 0.0402 nM | 106% | > 9950 nM | 5.42 nM | – | 28.7 nM | > 9950 nM | –
Y[Aib]EGT[αMePhe(2-F)]TSDV[Aib]I[αMeL]LD[Orn]K([AEEA-AEEA-γGlu-C14 diacid])AQ[Aib]EFI[dE][αMeY]LIK([AEEA-AEEA-γGlu-C14 diacid])GGPSSGAPPPS-NH2 (N-terminus assumed; SMILES CC[C@H](C)[C@H](NC(=O)[C@H](CC(C)C)NC(=O)[C@](C)(Cc1ccc(O)cc1)NC(=O)[C@@H](CCC(=O)O)NC(=O)[C@@H](NC(=O)[C@H](Cc1ccccc1)NC(=O)[C@H](CCC(=O)O)NC(=O)C(C)(C)NC(=O)[C@H](CCC(N)=O)NC(=O)[C@H](C)NC(=O)[C@H](CCCCNC(=O)COCCOCCNC(=O)COCCOCCNC(=O)CC[C@H](NC(=O)CCCCCCCCCCCCC(=O)O)C(=O)O)NC(=O)[C@H](CCCN)NC(=O)[C@H](CC(=O)O)NC(=O)[C@H](CC(C)C)NC(=O)[C@](C)(CC(C)C)NC(=O)[C@@H](NC(=O)C(C)(C)NC(=O)[C@@H](NC(=O)[C@H](CC(=O)O)NC(=O)[C@H](CO)NC(=O)[C@@H](NC(=O)[C@](C)(Cc1ccccc1F)NC(=O)[C@@H](NC(=O)CNC(=O)[C@H](CCC(=O)O)NC(=O)C(C)(C)NC(=O)[C@@H](N)Cc1ccc(O)cc1)[C@@H](C)O)[C@@H](C)O)C(C)C)[C@@H](C)CC)[C@@H](C)CC)C(=O)N[C@@H](CCCCNC(=O)COCCOCCNC(=O)COCCOCCNC(=O)CC[C@H](NC(=O)CCCCCCCCCCCCC(=O)O)C(=O)O)C(=O)NCC(=O)NCC(=O)N1CCC[C@H]1C(=O)N[C@@H](CO)C(=O)N[C@@H](CO)C(=O)NCC(=O)N[C@@H](C)C(=O)N1CCC[C@H]1C(=O)N1CCC[C@H]1C(=O)N1CCC[C@H]1C(=O)N[C@@H](CO)C(N)=O) [Example 325] | 0.225 nM | 97.8% | 0.0485 nM | 104% | > 9950 nM | 3.96 nM | 94.7% | 23.5 nM | > 9950 nM | 98.4%
Y[Aib]EGT[αMePhe(2-F)]TSDV[Aib]I[αMeL]LD[Orn]K([AEEA-AEEA-γGlu-Decanoyl(10-(4-HOOC-PhO))])AQ[Aib]EFI[dE][αMeY]LIK([AEEA-AEEA-γGlu-Decanoyl(10-(4-HOOC-PhO))])GGPSSGAPPPS-NH2 [Example 326] | 0.186 nM | 94.4% | 0.0338 nM | 102% | > 9950 nM | 4.62 nM | 88.7% | 26.1 nM | > 9950 nM | 96.1%
Y[Aib]EGT[αMePhe(2-F)]TSDV[Aib]I[αMeL]LD[Orn]IAQ[Aib]K([AEEA-AEEA-γGlu-C14 diacid])FI[dE][αMeY]LIK([AEEA-AEEA-γGlu-C14 diacid])GGPSSGAPPPS-NH2 (N-terminus assumed; SMILES CC[C@H](C)[C@H](NC(=O)[C@H](CCCN)NC(=O)[C@H](CC(=O)O)NC(=O)[C@H](CC(C)C)NC(=O)[C@](C)(CC(C)C)NC(=O)[C@@H](NC(=O)C(C)(C)NC(=O)[C@@H](NC(=O)[C@H](CC(=O)O)NC(=O)[C@H](CO)NC(=O)[C@@H](NC(=O)[C@](C)(Cc1ccccc1F)NC(=O)[C@@H](NC(=O)CNC(=O)[C@H](CCC(=O)O)NC(=O)C(C)(C)NC(=O)[C@@H](N)Cc1ccc(O)cc1)[C@@H](C)O)[C@@H](C)O)C(C)C)[C@@H](C)CC)C(=O)N[C@@H](C)C(=O)N[C@@H](CCC(N)=O)C(=O)NC(C)(C)C(=O)N[C@@H](CCCCNC(=O)COCCOCCNC(=O)COCCOCCNC(=O)CC[C@H](NC(=O)CCCCCCCCCCCCC(=O)O)C(=O)O)C(=O)N[C@@H](Cc1ccccc1)C(=O)N[C@H](C(=O)N[C@H](CCC(=O)O)C(=O)N[C@@](C)(Cc1ccc(O)cc1)C(=O)N[C@@H](CC(C)C)C(=O)N[C@H](C(=O)N[C@@H](CCCCNC(=O)COCCOCCNC(=O)COCCOCCNC(=O)CC[C@H](NC(=O)CCCCCCCCCCCCC(=O)O)C(=O)O)C(=O)NCC(=O)NCC(=O)N1CCC[C@H]1C(=O)N[C@@H](CO)C(=O)N[C@@H](CO)C(=O)NCC(=O)N[C@@H](C)C(=O)N1CCC[C@H]1C(=O)N1CCC[C@H]1C(=O)N1CCC[C@H]1C(=O)N[C@@H](CO)C(N)=O)[C@@H](C)CC)[C@@H](C)CC) [Example 329] | 0.353 nM | 104% | 0.015 nM | 109% | > 9950 nM | 5.44 nM | 100% | 74.7 nM | > 9950 nM | 88.3%
